The results in this text go back to publication PMC8635971, “A nanocompartment system contributes to defense against oxidative stress in Mycobacterium tuberculosis” (eLife, 2021).

The series concerns the molecule itself. Nature of the series: SDS-PAGE of unboiled (native state) samples.

B1: unencapsulated (naked) DyP purified from E. coli (enzyme)
chain: MAVPAVSPQPILAPLTPAAIFLVATIGADGEATVHDALSKISGLVRAIGFRDPTKHLSVVVSIGSDAWDRLFAGPRPTELHPFVELTGPRHTAPATPGDLLFHIRAETMDVCFELAGRILKSMGDAVTVVDEVHGFRFFDNRDLLGFVDGTENPSGPIAIKATTIGDEDRNFAGSCYVHVQKYVHDMASWESLSVTEQERVIGRTKLDDIELDDNAKPANSHVALNVITDDDGTERKIVRHNMPFGEVGKGEYGTYFIGYSRTPTVTEQMLRNMFLGDPAGNTDRVLDFSTAVTGGLFFSPTIDFLDHPPPLPQAATPTLAAGSLSIGSLKGSPR
notes: dye-decolorizing peroxidase DyP, Rv0799c, Mycobacterium tuberculosis; Tetramer seen after addition of hemin; The methods say the SUMO tag was removed; the results call the protein SUMO-tagged; A tetramer of 144 kDa would fit an untagged monomer of about 36 kDa (surmise); also called free DyP; SUMO-tagged unencapsulated DyP
Turning to B1, the stoichiometry N (as a rule, the number of molecules, sites or subunits per partner or assembly) worked out at 4.
